Laboratory results: paper PMC10421887 (Scientific Reports, 2023)

Molecular target: T1, SARS-CoV-2 Nucleocapsid Protein with GST-tag, biotinylated (Severe acute respiratory syndrome …, UniProt P0DTC9)
T1 construct: also called NP; N-GST
Assay: ELISA; […], room temperature; […]
Details: one partner purified

B1: Fab N1G1 (Fab, V domains shown)
VH: EVQLLESGGGLVQPGGSLRLSCAASGFTFSDYYMHVRQAPGKGLEWVSEINPSSGNTDYADSVKGRFTISRDNSKNTLYLQMNSLRAEDTAVYYCAREYEEHGYYLTDYYFDYWGQGTLVTVSS
VL: EIVLTQSPGTLSLSPGERATLSCRASQSVSSSALAWYQQKPGQAPRLLIYGASSRATGVPDRFSGSGSGTDFTLTISRLEPEDFAVYYCQQMHSTPWTFGQGTKVEIK
notes: also called positive control for anti-NP1 & 2 screening
Q: Does B1 bind?
A: binds
